Earlier results as cited in PMC8535836.

Biological target: Neuroplastin Np65 Ig1 (Rattus norvegicus) (UniProt P97546)
Test: Surface Plasmon Resonance

- Kd: 520 nM
Substance: Neuroplastin Np65 Ig1 (from UniProt P97546)
